How the values were obtained:
[1] = target: PVY coat protein N-terminal deletion mutant ΔN49 (potato virus Y (NTN strain)); assay: cryo-EM 2D class averages
[2] = target: PVY coat protein N-terminal deletion mutant ΔN49 (potato virus Y (NTN strain)); assay: SEC-MALS

“PVY coat protein N-terminal deletion mutant ΔN49 (domain or fragment)” showed a stoichiometry N [1] of 8 and a stoichiometry N [2] of 8.

Reference: publication PMC6636993
